Laboratory results: patent US20240150805A1, “Glycosylated Opioids” (River Stone Biotech ApS, priority 2021, published 2024)

Assay: In vitro glucosylation of oripavine and nororipavine by purified UGTs
Format: biochemical
Conditions: for preference for nororipavine glucosylation compared to oripavine glucosylation: purified UGT, 500 μM substrate, overnight at 30° C., HPLC
Method: Glucosylation samples of a 20 μL total reaction volume for each UGT to be tested were prepared in 96-well microtiter plates as follows:
The microtiter plate was sealed with an adhesive seal, spun shortly and the glucosylation samples were incubated overnight at 30° C. After incubation, glucosylation reaction was terminated by adding 3 volumes (60 μL) of ice-cold 100% methanol the reaction volume and mixing well, followed by centrifugation of the plate at 3000 rpm for 5 min at 4° C. and analysis by HPLC.
The 72UGTs of Table 5 were tested in vitro to using the test setup of example 3 identify those having having specificity toward nororipavine.

[1] = 72UGTs, test setup of example 3, FIG. 8

Molecule | preference for nororipavine glucosylation compared to oripavine glucosylation | specificity for nororipavine compared to oripavine [1] | glucosylation activity [1]
XP_023905565: subfamily 72 UGT, sequence homolog of Qs72S_1 (protein, Quercus suber) MEQKPHIALLPSPGMGHLVPLVELAKLLLLHHDFHITCIIPVLGSPSKAMKAVLQALPTSIDHVFLPPVILEEEEIKGLKLEVQAMLTLTRSLPPLRDVLKSTRFSAFVVDPFGIDALDIAKELNISPYIFFPSNAFALSLVLHLPKLDETVSCEYRDLPEPIKLPGCITIHGRDLLEPVQDRTSELYKMFLSNTKRYRLAEGIIVNTFMELEGSAIKALLEEEAKNLPLFPVGPIQSGSSNQVDKSESDCLRWLDNQPHGSVLFVCFGSGGTLSYDQTNELALGLELSGQKFIWVVRTPNNESADATYLSDQTLGNNPLAFLPKGFVERTKGQGLVVPFWAPQAQVLSHGSTGGFLTHCGWNSTLESIMQGIPLIVWPLFAEQKMNAALLAEDLKVALRPKTNKNGRIDREEITKVVKGLMVGEEGKKVRNRMKDIKIAAEKALSADGSSTKALSKLATQWKNHSDF | particularly strong preference for Nororipavine glucosylation | – | –
KAF3968554: subfamily 72 UGT, sequence homolog of Qs72S_1 (protein, listed as Castanea mollissima) MEQKPHIGILPSPGMGHLIPLVEFAKLLVHHHDFNITCIIPVLGSPSKAMKAVLHALPTTIDHVFLPPVILEEEEMKGPRFEVQTILTLTRSLPPLRDVLKSTRFSAFVVDPFGIDALDIAKELNISPYIFFPTNAFALSLIFHLPKLDETVSCEYRDLPEPLKLPGCIPIHGRDLAEPFQNRTSESYKMFLRIAKRFRLAEGIIVNTFMGLEGSAIKALLEEEAKNLPLYPVGPIQSGSSNQVEESDCLRWLGNQPHGSVLFVCFGSGGTLSYDQTNELALGLELSGQKFLWVVRTPNNESADAAYLSDQTLYNNPLAFLPKGFVERTEGQGLAVPSWAPQAQVLSHGSTGGFLTHCGWNSSLESIMQGIPLIAWPLYAEQKMNAVLLAEDLKVALRPKTNKNGLIDREEIAKVVKGLMDGEEGKKVRNRMKDIKIAAEKALNVDGSSTKTLSKLASKWKNHSSF | particularly strong preference for Nororipavine glucosylation | – | –
SrUGT71E1: subfamily 71 UGT from Stevia rebaudiana (protein, listed as Stevia rebaudiana) MSTSELVFIPSPGAGHLPPTVELAKLLLHRDQRLSVTIIVMNLWLGPKHNTEARPCVPSLRFVDIPCDESTMALISPNTFISAFVEHHKPRVRDIVRGIIESDSVRLAGFVLDMFCMPMSDVANEFGVPSYNYFTSGAATLGLMFHLQWKRDHEGYDATELKNSDTELSVPSYVNPVPAKVLPEVVLDKEGGSKMFLDLAERIRESKGIIVNSCQAIERHALEYLSSNNNGIPPVFPVGPILNLENKKDDAKTDEIMRWLNEQPESSVVFLCFGSMGSFNEKQVKEIAVAIERSGHRFLWSLRRPTPKEKIEFPKEYENLEEVLPEGFLKRTSSIGKVIGWAPQMAVLSHPSVGGFVSHCGWNSTLESMWCGVPMAAWPLYAEQTLNAFLLVVELGLAAEIRMDYRTDTKAGYDGGMEVTVEEIEDGIRKLMSDGEIRNKVKDVKEKSRAAVVEGGSSYASIGKFIEHVSNVTI | preference for glucosylation of nororipavine | – | –
XP_023875154: subfamily 72 UGT, sequence homolog of Qs72S_1 (protein, Quercus suber) MLSKMEQKPHIALLPSLGMGHLIPLVEFAKQFVLHHDFHITCIIPVLGSPSKAMKAVLQALPTAIDHVFLPPVKLEEEEIKGLKFEVQTILTLTRSLPPLREVLKSTRFSAFVVDPFGIDALDIAKELNISPYIFFPTNAFALSLIFHLPKLDETVSCEYRDLPEPLKLPGCIPIHGRDLLEPVQDRTSELYKMFLRNAKRFRLAEGIIVNTFMELEGSAIKALLDEEAKNLPLYPIGPIQSGSSNQVDKSESDCLRWLDNQPHGSVLFVCFGSGGTLSYDQTNELALGLELSGQKFLWVVRTPNNESADAAYLSDQTLNNNLLAFLPKGFVERTEGQGLAVPSWAPQAQVLSHGSTGGFLTHCGWNSTLESIMQGIPLIAWPLYAEQKMNAPLLAEDLKVALRPKTNKNGLIDREEIAKVVKGLMIGEEGKKVYNRMKDIKMAAEKALSADGSSTKALSELASQWKNHPGF | particularly strong preference for Nororipavine glucosylation | particularly high specificity | –
XP_030967178: subfamily 72 UGT, sequence homolog of Qs72S_1 (protein, listed as Quercus lobata) MEQKPHIALLPSPGMGHLIPLVELAKLLLLHHDFHITCIIPVLGSPSKAMKAVLQALPTSIDNVFLPPVILEEEEIKGLKLEVQAMLTLTRSLPPLRDVLKSTRFSAFVVDPFGIDALDIAKELNISPYIFFSSNAFALSLVLHLPKLDETVPCEYRDLPEPVKLPGCIPIHGRDLIEPVQDRTSELYKMFLTNAKRYRLAEGIIVNTFMELEGSAIKAMLEEEAKNLPLFPVGPIQSGSSNQVDKLESDCLSWLDNQPHGSVLFVCFGSGGTLSYEQTNELALGLELSGQKFIWVVRTPNNESADATYLSDQNLGDNPLAFLPKGFVERTKGQGLVVPLWAPQAQVLSHGSTGGFLTHCGWNSTLESIMQGIPLIVWPLFAEQKMNAALLAEDLKVALRPKTDKNGLIDREEIAKVVKGLMVGEEGKKVHNRMEDIKIAAEKALSADGSSTKALSKLATQWKNHPDF | particularly strong preference for Nororipavine glucosylation | particularly high specificity | –
XP_023876189: subfamily 72 UGT, sequence homolog of Qs72S_1 (protein, Quercus suber) MEQKPHIAILPSPGMGHLIPFVEFAKLLLLHHDFHITCIIPTIGSPSKAMREVLQALPTSIDHVFLPPVSLEELGGVKPGIQITLTMIRSLPPLREVLTSLVATTRLVALVVDLFGTDALDVAKELNVSPYIFYPTNAMVVSLVLHLPKLDETVSCEYRDLPEPVKLPGCVPIHGRDLLDPIQDRTTELYKLFLRGAKWLRLVEGIIVNTFMELDGNVIKALEDEEAKSGTIYTIGPIIQSSSTKHVEGSDGLRWLDNQPRGSVLFVCFGSGGTLSYDQMKELALGLELSKQKFLWVVRSPNNELAQAAYFSDQTLDNNPLSFLPVGFIERTKEQGLVVPSWAPQAQVLSHDSTGGFLSHCGWNSTLESIMQGIPLIAWPLFAEQRMNALLLTEDLKVALRPKANEKNLVDREEIAKVIKSLMVGEDGKKIHSRMKDLKIAAEKALSPNGPSTKALADLASHWTNQSNS | particularly strong preference for Nororipavine glucosylation | particularly high specificity | –
KAF3968553: subfamily 72 UGT, sequence homolog of Qs72S_1 (protein, listed as Castanea mollissima) MEQKPHIALLPSPGMGHLIPLVEFAKLFVLHHDFRITCIIPVLGSPSKAMKAVLQALPTTIDHVFLPPVILEEEEIKGLKFEVQTILTLTRSLPPLRDVLKSTRFSAFVVDPFGIDALDIAKELKISPYIFFPTNAFVLSLMFHLPKLDETVSCEYRDLPEPLKLPGCIPIHGRDLIEPVQDRTSELYKMFLRNVKRFRLAEGIIVNTFMELEGSAIKALLDEEAKNLPLYPIGPIQSGSSNLQVDKSESDCLRWLDNQPRGSVLFVCFGSGGTLSYDQTNELALGLELSGQKFLWVVRTPDNESADAAYLSDQTLDNNPLAFLPKGFVERTEGQGLAVPSWAPQAQVLSHGSTGGFLTHCGWNSTLESIMQGIPLIAWPLYAEQKMNAPLLAEDLKVALRPKTNKNGLIDREEIAKVVKGLMVGEEGKKVHNRMKDIKIAAEKALSADGSSTKTLSELASQWKNHPGF | particularly strong preference for Nororipavine glucosylation | particularly high specificity | –
Qs72S_1: subfamily 72 UGT (glycosyltransferase) from Quercus suber (protein, Quercus suber, subfamily 72 UGT (glycosyltransferase) from Quercus suber) MEQKPHIALLPSPGMGHLIPLVEFAKQFVLHHDFHITCIIPVLGSPSKAMKAVLQALPTTIDHVFLPPVILEEEEIKGLKFEVQTILTLTRSLPPLREVLKTTRFSAFVVDPFGIDALDIAKELNISPYIFFPSNAFALSLIFHLPKLDETVSCEYRDLPEPLKLPGCIPIHGRDLIEPVQDRTSELYKMFLRNAKRFRLAEGIIVNTFMELEGSAIKALLDEEAKNLPLYPIGPIQSGSSNLQVDKSVSDCLRWLDNQPHGSVLFVCFGSGGTLSYDQTNELALGLELSGQKFLWVVRTPNNESADAAYLSDQILDNNPLDFLPKGFVERTEGQGLAVPSWAPQAQVLSHGSTGGFLTHCGWNSTLESIMQGIPLIAWPLYAEQKMNAPLLAEDLKVALRPKTNKSGLIDQEEIAKVVKGLMIGEEGKKVYNRMKDIKMAAEKALSADGSSTKALSELASQWKNHPGF | particularly strong preference for Nororipavine glucosylation | particularly high specificity | high activity
PWA37695: subfamily 73 UGT (protein, listed as Artemisia annua) MVAPSTELHFVMFPLMAQGHIVPMVDIARILAEKGATVTIFATPLVANRFRPVISRAIEAKLKIQILELELQVAKVGLPEGCQSFEKLPSSDSSAKLFAAMDLLEQPAEDLVRKLSPPPDCIISDFLFPWTTDMARRFNIPRLVFHGPGCFWLVCMHAVFSSDKFKTIKLEEKFMLPGLPDQVEVTKLQITGTKEIKPEQMGFWVRATEAEKAAYGTVVHTFYELEPEYVKEYSKVKDTKVWCIGPVALSNKANLDIAERGNKAAINEHDCLKWLDEKEPGSVFYVCLGSITRLSTEQAIEIALGLESTNQPFLWFLRNKTQELEKWFSEVGFEERVKDRGLIVHGWAPQILILSHCAVGGFLTHCGWNSTLEGVSFGVPMVTWPHFADQFLNETFIVEILKIGVRIGVDIPELYGEEDKLEALVKKEDVKRAVECLMDKEDKEAKQRRKRARKLAEMAKRAMAEGGSSYVNVSSLIQDITEFRNTQRLNRLHV | very strong preference for oripavine glucosylation | – | –
